Laboratory results: the DeepSol protein solubility set

Assay: soluble on expression in E. coli; label from the status in PepcDB or PDB records

Which “soluble on expression in E. coli” value does the source give for “MLGAMFRAGTPMPPNLNSQGGGHYFIDRDGKAFRHILNFLRLGRLDLPRGYGETALLRAEADFYQIRPLLDALRELEASQGTPAPTAALLHADVDVSPRLVHFSARRGPHHYELSSVQVDTFRANLFCTDSECLGALRARFGVASGDRAEGSPHFHLEWAPRPVELPEVEYGRLGLQPLWTGGPGERREVVGTPSFLEEVLRVALEHGFRLDSVFPDPEDLLNSRSLRFVRH” here?
Its value is “soluble”.

For “MKPRETKLLGSIREAIEKTGLKDGMTISFHHHFREGDYVMNLVLAEIAAMGLKNISIAPSSIANVHEPLIEHIKNGVVTNITSSGLRDKVGAAISAGIMENPVVIRSHGGRARAVAAGDIHIDVAFLGAPSSDAYGNANGTKGKATCGSLGYAMVDAKYADQVVIITDTLVPYPNTPISIPQTDVDYVVEIDAIGDPDGIAKGATRFTKNPKELLIAEYAAKIITHSPYYKEGFSFQTGTGGSSLAVTRFMREQMLKDGIKASFALGGITNAMVELLEEGLVEKIIDVQDFDHPSAISLGENANHYEIDANMYASPLSKGAVINQLDTAILSALEVDTDFNVNVITGSDGVIRGASGGHSDTSMACKMSLVIAPLVRGRIPTIVEQVNTVVTPGTSVDVVVTEVGIAINPKRTDLIDCFKTLDVPQFTLEELKDKAYNIVGTPEPIKYGDKVVALIEYRDGSLIDVVRNVLEHHHHHH”, which “soluble on expression in E. coli” value is on record?
The value was “soluble”.

For “MDLIGLRIRNIRKIKQLTLKEAAKGIISVPYLANIENGVKVASFETLMHIAKRLEIPEEALLIGNEDLNKELLQELKQIFDLLVFSNTKEAGDRLDQIAANVDLLCESPVIELSFYWLQAGFYYKTWEFSKAREIERKYLNSNEKRVVESFPPDLLSYYYYGQAVKHSHATCDYQLAVEYWEKSIDLTDKAAFQVVFQVGLCINYICLNNYEPALKHIECAWNLIKRFPSKDQERITAILYLYGYINFQIGFMTEAKRKFEEVLVFFNMYPEAKTMYSFLVRFKLAEIERVEGNHELFDEKIVCLYEELMAHEASEIGFNNNDYLVITELMVIFAEQGSVLEASNLLAIINKVTEQVMEINFFVTYTETLLLYHQNKQSSYEKKMLDLLKKIDESNDPALIERVKKHASKHFADSTKYKMAYNILA”, which “soluble on expression in E. coli” value is on record?
Its value is “not soluble”.

With “MSLTYDLLITDSHVITPKGMVEKNIVVENGKIELITNDSPDCDKKINGSGLVSIPGLIDPHVHYGVYSPIDQAAISESHAAAIGGVTTMIRMFRLKGSYKESLNKHLLASQNSHYIDYTLHASIFDDSQISEMQYCAENKIISFKIYMNLGGDVGHVYMEMNPGEEKLIAAEVNVTNELVEKIVKNAASLKCPVLVHAEDYQECSCGMKTEKEKNHDGLNAWSESRSPNFEAKSIQIICEYGRKYDCQIYFVHIGSKLALDKIKEEKKKGTKIFVETCPHYLTLSHETQTGYLAKVMPPIRTNNDVQSVWNALQNNEIDTIGTDHVANQLKLKLGGDDVWGALAGFPGIGTSLPILLSEGINKNRINLNQLANLTSTNSAKIFGLSGKGSLEKGYDADITMIDLKKEEKVSPELFGGFSDYLVYDGWNLKGWPVKTIVRGTVVAEDFEVIGKPGYGNFVPRKLSEGHHHHHH” as the sequence, how does the “soluble on expression in E. coli” value read?
The value was “not soluble”.

For “DMKPNSTKIGVAEATDAALIQALQQRQVFTKTTQPTLSWEQYLELNLNSKSKRLALCNKLHLSYFNHKQLFRKLNLLQLTFDQVCQLLK”, which “soluble on expression in E. coli” value is on record?
The value was “not soluble”.

Which “soluble on expression in E. coli” value does the source give for “MAIFARETMDLIATASFPSIKKLSSGFWLDLFESTLTSGNELVLLPPTRYSYWSIMAVANPTPLKAPRRLDLVTKSLLAAPLLFHLVCQSNNPVREDVLDCWVWPFFCSGNTALMKSPKFWALLGVGSKVVLPWLCPLLGSRNAGKA” here?
The value was “soluble”.

For “RDISVMVLLDLSESTNNQVNGQEFTVLDLTRQATVLLADAINRIGDPFAIHGFCSDGRHDVEYYRFKDFDQPYNEVPKMRLAGMTGQLSTRMGAAIRHASHFLKLQRAAKKLLLVITDGEPADVDVRDPQYLRFDTKKAVEEAGRSGILTYCMSLDPRADQYVSRIFGMRNYMVVDHVERLPEKLPMLYAGLTR”, which “soluble on expression in E. coli” value is on record?
Its value is “not soluble”.

Which “soluble on expression in E. coli” value does the source give for “MNQKLKVAIIGSGNIGTDLMIKVLRNAKYLEMGAMVGIDAASDGLARAQRMGVTTTYAGVEGLIKLPEFADIDFVFDATSASAHVQNEALLRQAKPGIRLIDLTPAAIGPYCVPVVNLEEHLGKLNVNMVTCGGQATIPMVAAVSRVAKVHYAEIVASISSKSAGPGTRANIDEFTETTSKAIEVIGGAAKGKAIIIMNPAEPPLIMRDTVYVLSAAADQAAVAASVAEMVQAVQAYVPGYRLKQQVQFDVIPESAPLNIPGLGRFSGLKTSVFLEVEGAAHYLPAYAGNLDIMTSAALATAERMAQSMLNA” here?
The value was “soluble”.

Which “soluble on expression in E. coli” value does the source give for “MSEQDATLDEFVEEGESESTDSANIDPNTLDQEQFGPFTLSTPGEWTAKRLGDIKQLITRGKQPTYDDDGVPVINQECIYWDGWHFENLRYLEEDVAEGWKEKYFPESGDVIVNSTGQGTLGRAQVYPGDQRRAIDSHVTLLRTDEQLCPHFHRYFFESHLGQALLYSMCVNGSTGQIELSKTRLDLLPTPLPPLEEQRKIASVLYNVDQAIQKTEAVIEKIERLKQGLLDDLFTKGLSESNSLRPSPEDHPGLYKKERRQTIPSEWNVESLQNLCVENITYGIVQPGPHVEDGVPYINTEDMTDGDIPTEGLSRTSPEIAEKYSRSQIHAEELVVTIRATIGAVDQVPPELEGANLTRGTARVVPGDKVDNTFLLWAIRSNNFQSELDARVKGTTFDEINLDQLGKIPVPHPDIDEQDRIVDELSTIEERMENEESYLEQLKRLKQGLMQDLLSGEVRTTDVDIPVLDAVAQHG” here?
The value was “soluble”.

For “MAKRKGKGTRSESNRNLEELRRKAVEIVKRLEKVYLNPRLELEYENAFQLLVMAILAAQESDKVVNKVSKEFFKKYKTPQDIARANLEELEEDLKHINFYRRKAKLIKECCEKLIELYKGEVPKSVGELVKLPGVGRKTANMVIGGAYNLPAIIVDRHVHRVVERISLSKQKNPDKMEMELSEIVPQELWTKFSLLLLNHGKTICKARNPECEKCPILDLCEYGQKNLKGRK”, which “soluble on expression in E. coli” value is on record?
Its value is “soluble”.

For “MQDYMQHLPHMQEIKSEILNKVLTQVQSYDESQFSAKDVKNALNQTHLSIEHLKALLSSAAEDFIEELAFKSAKVKQKYFGNSISLFTPLYLSNYCNSKCVYCGFQKGNKIARAKLNEAEIHEEMQAIAKSGLEEILMLTGEGREFASVEYIANACKIAREYFKVVGVEIYPMNEDEYKILHEKGCDYVTVFQETYNPLKYSKIHLAGEKRIFPYRFNAQERALKAGMRGVAFAALLGIDDFRKDALATALHAHFLQQAYSHAEISISVPRLRPIINNAKIHPKDVSEKRLLQVLCAYRLFLPFAGITISSRERIGFRDEVIKLGATKMSAGVSVGIGEHKGEKKGDEQFEISDDRSVDEILAMLKRSNLQAVMSDSIYVG”, which “soluble on expression in E. coli” value is on record?
The value was “not soluble”.

For “MILVTGSSGQIGTELVPYLAEKYGKKNVIASDIVQRDTGGIKFITLDVSNRDEIDRAVEKYSIDAIFHLAGILSAKGEKDPALAYKVNMNGTYNILEAAKQHRVEKVVIPSTIGVFGPETPKNKVPSITITRPRTMYGVTKIAAELLGQYYYEKFGLDVRSLRYPGIISYKAEPTAGTTDYAVEIFYYAVKREKYKCYLAPNRALPMMYMPDALKALVDLYEADRDKLVLRNGYNVTAYTFTPSELYSKIKERIPEFEIEYKEDFRDKIAATWPESLDSSEASNEWGFSIEYDLDRTIDDMIDHISEKLGIEGKHAL”, which “soluble on expression in E. coli” value is on record?
The value was “soluble”.

Which “soluble on expression in E. coli” value does the source give for “MVRPRTIDRERLLDIAESIISEAGAVTISFGGLAEAAGLSKASVQSVFGTREAMMEALLERWLRKEQRAYQKKIGPQSSLRERVRRHVKITGKESSEANSRLAAVLTALVGSDATEGVMAKWYASRVGKFSAETQEERLLRIAFLAAEGAFFMRHVAGFPMSDRLWRELFHDLLDFVAEPVGGAARSAA” here?
Its value is “not soluble”.

With “MGSDKIHHHHHHEDTTSSPEEDPLAPQNDDADLLLKPLIAKDPRTRGQRGPFAAMTGSYGRGGYGGSGGGAFGGFNGGYGQGGYGGGGDFGGGMGGGGYGGGGYGGGGDGGGGYGGYGGGGYGGMGGGPGGYGMGGYGGGGGGGGDFGGYGGGGMGGGGYGGGGDGGYGGGGFGGGGMGGYGGGMGGGGYGGGGMGGGGYGGGGDGGYGPSGGYGGGYGPGGGYGMGGGGGGGGCPNGECRGKK” as the sequence, how does the “soluble on expression in E. coli” value read?
Its value is “not soluble”.

For “MSLDQYGNIRAMGIHSLLYCERLFYLEEVEGILVADDRVYAGRTLHEELEPNEDFSGRIESFHYTSEKLEVSGKVDRIQKRDGDWIPYEHKRGRARIGTNGPEAWESDQCQVTVYALLLEEATGRNISEGKIRYHGSKDLVKIEIDEELRSKALKTIDRAKELSTSTNRPPVAQNENLCKNCSLAPVCLPEETRVITENEYEPIRLFPEKREGHHHHHH”, which “soluble on expression in E. coli” value is on record?
The value was “soluble”.

For “MSLVLIQGAGIAGLALAREFTKAGIDWLLVERASEIRPIGTGITLASNALTALSSTLDLDRLFRRGMPLAGINVYAHDGSMLMSMPSSLGGNSRGGLALQRHELHAALLEGLDESRIRVGVSIVQILDGLDHERVTLSDGTVHDCSLVVGADGIRSSVRRYVWPEATLRHSGETCWRLVVPHRLEDAELAGEVWGHGKRLGFIQISPREMYVYATLKVRREEPEDEEGFVTPQRLAAHYADFDGIGASIARLIPSATTLVHNDLEELAGASWCRGRVVLIGDAAHAMTPNLGQGAAMALEDAFLLARLWCLAPRAETLILFQQQREARIEFIRKQSWIVGRLGQWESPWSVWLRNTLVRLVPNASRRRLHQRLFTGVGEMAAQEGHHHHHH”, which “soluble on expression in E. coli” value is on record?
Its value is “not soluble”.

For “MTTDAAVAELLALGELTVRGRIRDASNAALYCTVTHEGREAACVYKPVAGERPLWDFPDGTLAQREVAAYEVSEATGWGLVPPTVLRDGPYGEGMVQLWIETVPETELLALVDEEEPGPGWKGIALAEVGEGRTALLVHADDERLRRLAVLDAVINNADRKGGHLLPAAGERLYGIDHGVTFNAENKLRTLLWGWAGDALTGEALAVLDALRRALKDGGTLALRLAALITPAELDATRARVDALLASGKHPEPGGEWPAIPWPPVLEHHHHHH”, which “soluble on expression in E. coli” value is on record?
Its value is “not soluble”.

With “GSSHHHHHHMLKIGSHVSMSGKKMLLAASEEAVSYGATTFMIYTGAPQNTRRKPIEELNIEAGRKHMEQNGIEEIIIHAPYIINVGNTTKPETFQLGVDFLRMEIERTSALGVAKQIVLHPGAHVGAGADAGIQQIIKGLNEVLTPDQTVNIALETMAGKGTECGRSFEEIAKIIDGVKYNEKLSVCFDTCHTHDAGYDIVNNFDGVLNEFDKIVGIDRLQVLHINDSKNVRGAGKDRHENIGFGHIGYKALHHIVHHPQLTHVPKILETPYVGEDKKDKKPPYKLEIEMLKNGTFDEGLLEKIKAQ” as the sequence, how does the “soluble on expression in E. coli” value read?
Its value is “soluble”.

For “MSLRISILQNNNKEVEAVKSEYESKLSKIQNDLDQQTIYANTAQNNYEQELQKHADVSKTISELREQLHTYKGQVKTLNLSRDQLENALKENEKSWSSQKESLLEQLDLSNSRIEDLSSQNKLLYDQIQIYTAADKEVNNSTNGPGLNNILITLRRERDILDTKVTVAERDAKMLRQKISLMDVELQDARTKLDNSRVEKENHSSIIQQHDDIMEKLNQLNLLRESNITLRNELENNNNKKKELQSELDKLKQNVAPIESELTALKYSMQEKEQELKLAKEEVHRWKKRSQDILEKHEQLSSSDYEKLESEIENLKEELENKERQGAEAEEKFNRLRRQAQERLKTSKLSQDSLTEQVNSLRDAKNVLENSLSEANARIEELQNAKVAQGNNQLEAIRKLQEDAEKASRELQAKLEESTTSYESTINGLNEEITTLKEEIEKQRQIQQQLQATSANEQNDLSNIVESMKKSFEEDKIKFIKEKTQEVNEKILEAQERLNQPSNINMEEIKKKWESEHEQEVSQKIREAEEALKKRIRLPTEEKINKIIERKKEELEKEFEEKVEERIKSMEQSGEIDVVLRKQLEAKVQEKQKELENEYNKKLQEELKDVPHSSHISDDERDKLRAEIESRLREEFNNELQAIKKKSFDEGKQQAMMKTTLLERKLAKMESQLSETKQSAESPPKSVNNVQNPLLGLPRKIEENSNSPFNPLLSGEKLLKLNSKSSSGGFNPFTSPSPNKHLQNDNDKRESLANKTDPPTHLEPSFNIPASRGLISSSSTLSTDTNDEELTSNNPAQKDSSNRNVQSEEDTEKKKEGEPVKRGEAIEEQTKSNKRPIDEVGELKNDEDDTTENINESKKIKTEDEEEKETDKVNDENSIEGHHHHHH”, which “soluble on expression in E. coli” value is on record?
Its value is “soluble”.
